Here are results for 64 variants from the RNAGym collection of RNA variant scans (doi:10.7554/elife.80360).

Sequences and labels used below:
B1: HDV Ribozyme (parent)
chain: GGCCGGCAUGGUCCCAGCCUCCUCGCUGGCGCCGGCUGGGCAACAUUCCGAGGGGACCGUCCCCUCGGUAAUGGCGAAUGGGACCCA

This data set covers variants of B1. In words: self-cleavage, relative activity (ratio to wild type); higher = more cleavage; co-transcriptional.
In the case of GGCCGGCAUGUUCCCAGCCUCCUCGGUGGCGCCGGCUGGGCAACAUUCCGAGGGGACCGUCCCCUCGGUAAUGGCGAAUGGGACCCA [G11U C26G], the self-cleavage stood at 0.527.
As for GGCCGGCAUGGUCCCAGCUUCCUCGCUGGCGCCGGCUGGGCAACAUUCCGAGGGGAUCGUCCCCUCGGUAAUGGCGAAUGGGACCCA [C19U C57U], the self-cleavage came out at 0.165.
Then GGCCGUCAUGGUCCCAGCCUCCUCGCUGGCGCCGGCUGGGCAACAUUCCGAGGGGACCGCCCCCUCGGUAAUGGCGAAUGGGACCCA [G6U U60C], with 0.525; and GGCCGGCAUGGUCCUAGCCUCCUCGCUGGCGCCGGCUGGGCAACAUUCCGAGGGGACCGUCCCCUCGGUAAUGGCGAAUGGGACCCA [C15U], with 0.965; and GGCCGGCAUGGUCCCAGCCUCCUUGGUGGCGCCGGCUGGGCAACAUUCCGAGGGGACCGUCCCCUCGGUAAUGGCGAAUGGGACCCA [C24U C26G], with 0.615.
For the variant GGCCGGCAUGGUCCCAGCCUCCUCGCUGUCGCCGGCUGGUCAACAUUCCGAGGGGACCGUCCCCUCGGUAAUGGCGAAUGGGACCCA [G29U G40U], the self-cleavage was found to be 0.0923.
With GGCCGGCAUGGUCCCAACCUCCUCGCUGGCGCCGGCUGGGCAACAUUCCGAGGGGACCGUCCCGUCGGUAAUGGCGAAUGGGACCCA [G17A C64G] the figure was 0.496; with GGCCGGCAUGGUCCCAGCCUCCUCGCUGGCGCCGGCUGGGCAACAUUCCGAGGGGCCCGUCCCCUCGGUACUGGCGAAUGGGACCCA [A56C A71C], 0.997; with GGCCGGCAUGGUCGCAGCCUCCUCGCUGGCGCCGGCCGGGCAACAUUCCGAGGGGACCGUCCCCUCGGUAAUGGCGAAUGGGACCCA [C14G U37C], 0.646.
Take GGCCGGCAUGGUCCCAGCCUCCUCGCUGGCGCCGGCUGGGCAACAUUCCGAGGGGACCGUCCCCCCGGUAAUGGCGAAUGGGACGCA [U65C C85G]: the self-cleavage was found to be 0.807.
With GCCCGGCAUGGUCCCAGCCUCCUCGCUGGCGCCGGCUGGGCAACAUUCCGAGGGGACCGUCCCCUCUGUAAUGGCGAAUGGGACCCA [G2C G67U] the figure was 0.026.
Then GGCCGGCAUGGUCCCAGCCUCCGCGCUAGCGCCGGCUGGGCAACAUUCCGAGGGGACCGUCCCCUCGGUAAUGGCGAAUGGGACCCA [U23G G28A], with 0.0941; and GGCCGCCAUGGUCCCAGCCUCCUCGCUGGCGCCGGCUGGGCAACAUUCCGAGGGGACCGUUCCCUCGGUAAUGGCGAAUGGGACCCA [G6C C61U], with 0.285.
Then GGCCGGCAUGGUCCCAGCCUCCUCGCUGGCGCCGGGUGGGCAACAUUGCGAGGGGACCGUCCCCUCGGUAAUGGCGAAUGGGACCCA [C36G C48G], with 0; and GGCCGGCAUGGUCCGAGCCUCCUCGCUGGCGCCGGCUGGGCAACAUUCCGAGGGGACCGUCCCCUCGGUAAUGGCCAAUGGGACCCA [C15G G76C], with 0.467; and GGCCGGCAUGGUCCCAGCCUCCUCGCUGGCGCCGGCUGGGCAACAUCCCGAGGGGACCGUCCCCUAGGUAAUGGCGAAUGGGACCCA [U47C C66A], with 0.875.
Consider GGCCGGCAUGGUCCCAGCCUCCUCGCUGGCGCCGGCUGGGCAACAUUCCGAGGGGACCGUCCCCUCGGUAAUGGAGAAUGGGACCAA [C75A C86A], for which the self-cleavage was 0.219.
With GGCCGGCAUGGUCCCAGCCUCCUCGCUGGCGCCGGCUGGGCAACAUUCGGAGGGGACCGUCCCCUCGGUAAUGGCGAAUGGGACCGA [C49G C86G] the figure was 0.587.
Take GGCCGGCAUGGUCCCCGCCUCCUCGCUGGCGCCGGCUGGCCAACAUUCCGAGGGGACCGUCCCCUCGGUAAUGGCGAAUGGGACCCA [A16C G40C]: the self-cleavage was 0.201.
As for GGCCGGCAUGGUCCCAGCCUCCUCGCUGGCGCCGGCUGGGCAACAUGCCGAGGGGACCAUCCCCUCGGUAAUGGCGAAUGGGACCCA [U47G G59A], the self-cleavage is 1.14.
For the variant GGCCGGCAUGGUCCCAGCCUCCACGCUGGCGCCGGCUGGGCAGCAUUCCGAGGGGACCGUCCCCUCGGUAAUGGCGAAUGGGACCCA [U23A A43G], the self-cleavage was determined as 0.516.
Then GGCCGGCAUGGUCCCAGCCUCCUCGCUGGCGCCGGCUGGGCAACAUACCGAGGGGACCGUCCGCUCGGUAAUGGCGAAUGGGACCCA [U47A C63G], with 0.653; and GGCCGGCAUGGUCCCAGCCUCCUCGCUGGCGCCGGCUGGACAACAUUCCGAGGGGACCGUCCCCUCGGUACUGGCGAAUGGGACCCA [G40A A71C], with 0.485.
Turning to GGCCAGCAUGGUCCCAGCCUCCUCGCUGGCGCCGGGUGGGCAACAUUCCGAGGGGACCGUCCCCUCGGUAAUGGCGAAUGGGACCCA [G5A C36G], the self-cleavage is 0.
Then GGCCGGCAUGGUCCCAGCCUACUCGCUGGCGCCGGCUGGGCAACAUUCCGAGGGGACCAUCCCCUCGGUAAUGGCGAAUGGGACCCA [C21A G59A], with 0.0936.
With GGCCGGCUUGGUCCCAGCCUCCUCGCUGGCGCCGGCUGGGCAACAUUCCGAGGGGACCGUCCCCUCGGUGAUGGCGAAUGGGACCCA [A8U A70G], the self-cleavage was 0.969.
Then GGCCGGCAUGGUUCCAGGCUCCUCGCUGGCGCCGGCUGGGCAACAUUCCGAGGGGACCGUCCCCUCGGUAAUGGCGAAUGGGACCCA [C13U C18G], with 0.0332; and GGCCGGCAUGGUCCCAGCCUCCUCGCUGGCGCCGGCUGGGCAACAUUCCAAGGGGACCGUCCCCUCGAUAAUGGCGAAUGGGACCCA [G50A G68A], with 0.957.
With GGCCGGCAUGGACCCAGCCUCCUCGCUGGCGCCGGCUGGGCAACAUUCCGAGGGGACCGUCCCCUCCGUAAUGGCGAAUGGGACCCA [U12A G67C] the figure was 0.244; with GGCCGGCAUGGUCCCAGCCUCCUCGCUGGCGCAGGCUGGGCAGCAUUCCGAGGGGACCGUCCCCUCGGUAAUGGCGAAUGGGACCCA [C33A A43G], 0.
Then GGCCGGCAUGGUUCCAGCCUUCUCGCUGGCGCCGGCUGGGCAACAUUCCGAGGGGACCGUCCCCUCGGUAAUGGCGAAUGGGACCCA [C13U C21U], with 0.0563; and GGCCGGCAUGGUCCCAGCCUCCUCGCUGGCGCCGGCGGGGCAACAUUCCGAGGGGACCGUCCCCUCGGUAACGGCGAAUGGGACCCA [U37G U72C], with 0.119; and GGCCGGCAUGGUCCCAGCCUCCUCGCUAGCGCCGGCUGGGCAACAUUCCGAGGGGACCGUCCCCUCGGUAAUGGCGAAUGGGACCCG [G28A A87G], with 0.0492.
With GGCCGGCAUGGUCCCAGCCUCCUCGCUGGCGCCGACUGGGCAACAUUCCGAGGGGACCAUCCCCUCGGUAAUGGCGAAUGGGACCCA [G35A G59A], the self-cleavage was 0.494.
With GGCCGGCAUGGUCCCAGCCUCCUCGCUGGCGCCGGCUGGGCAACACUCCGAGGGGACCGCCCCCUCGGUAAUGGCGAAUGGGACCCA [U46C U60C] the figure was 0.772; with GGCCGGCAUGGUCCCUGCCUCCUCGCUGGCGCCUGCUGGGCAACAUUCCGAGGGGACCGUCCCCUCGGUAAUGGCGAAUGGGACCCA [A16U G34U], 0.128.
With GGCCGGCAUGGGCCCAGCCUCCUCGCUGGCGCCGGCUGGGCAACAUUCCGAGGGGACCGUCCCCUCGGUAAUGGCGAAUGGGACCUA [U12G C86U] the figure was 0.403; with GGCCGGCAUGGUCCCAGCCUCCUCGCUGGCGCCGGCUGUGCAACAUUCCGAGGGGACCGUCCCCUCGGUAAUGGCGAAUGGGGCCCA [G39U A83G], 0.444.
Then GGCCGGCAUGGUCCCAGCCUCCUCGCUGGCGCCGGCUGGGCAACAUUCCGAGGGGACCGUCCCCUCGGUAAUGGCGAAUGGGCCCCU [A83C A87U], with 0.346; and GGCCGGCAUGGUCCCAGCCUCCUCGCUGGCGCCGGCAGGGCAACAUUCCGAGGGGACCGUCCCCUCGGUAUUGGCGAAUGGGACCCA [U37A A71U], with 0.394.
On to GGCCGGCAUGGUCCCAGCCUCCUCGCUGGCGCCGGGCGGGCAACAUUCCGAGGGGACCGUCCCCUCGGUAAUGGCGAAUGGGACCCA [C36G U37C], for which the self-cleavage amounted to 0.158.
Take GGCCGGCAUGGUCCCAGCCUCCUCGCUGGCGCCGGCUGGGCAACAUUCCGAGGGGACCGUCCCCUCCGUAAUGGCGAAUGGGGCCCA [G67C A83G]: the self-cleavage was determined as 0.597.
As to GGCCGGCAUGAUCCCAGCCUCCUCGCUGGCGCCGGCUGGGCAACAUUCCGAGGGGACCGUCCCCUAGGUAAUGGCGAAUGGGACCCA [G11A C66A], the self-cleavage is 0.308.
With GGCCGGCAUGGUCCCAGCCUCCUCGCUGGCGCCGGCUGGGCAACAUUCCCAGGGUACCGUCCCCUCGGUAAUGGCGAAUGGGACCCA [G50C G55U] the figure was 0.776.
As for GGCCGGCAUGGUCCCAGCCUCCCCGCUGGCGCCGGCUGGUCAACAUUCCGAGGGGACCGUCCCCUCGGUAAUGGCGAAUGGGACCCA [U23C G40U], the self-cleavage was determined as 0.587.
With GGCCGGCAUGGUCCCAGCCUCCUCGCUGGCGCCGGCUGGGCAACAUUCCGAGGGGACCGUCCCCUCGGUAAUGGGGAAUGGGACCCC [C75G A87C] the figure was 0.073; with GGCCGGCAUGGUCCCAGCCUCCUCGCUGGCGGCGGCUGCGCAACAUUCCGAGGGGACCGUCCCCUCGGUAAUGGCGAAUGGGACCCA [C32G G39C], 0.116.
For the variant GGCCCGCAUGGUCCCAGCCUCCUCGGUGGCGCCGGCUGGGCAACAUUCCGAGGGGACCGUCCCCUCGGUAAUGGCGAAUGGGACCCA [G5C C26G], the self-cleavage stood at 0.138.
Then GGCCGGCAUCGUCCCAGCCUCCUCGCUGGCGCCGGCUGGGCAACAUUCCGAGGGGAGCGUCCCCUCGGUAAUGGCGAAUGGGACCCA [G10C C57G], with 0.81.
With GGCCGGCAUGGUCCCAGCCUCCUCGCGGGCGCCGGCUGGGCAACAUUCCGAGGGGACCGUCCCCUCGGUAAUGGCGAAUGGGACCCA [U27G] the figure was 0.848.
With GGCCGGCAUGGUCCCAGCCUCCUCGCUGGCGCCGGCUGGGCAACAUUCCGAGGGGACCGUCCCCUCAGUAAUGGCGGAUGGGACCCA [G67A A77G], the self-cleavage is 0.712.
Then GGCCGGCAUGGUCCCAUCCUCCUCGCUGGCGCCGGCUGGGCAACAUUCAGAGGGGACCGUCCCCUCGGUAAUGGCGAAUGGGACCCA [G17U C49A], with 0.614; and GUCCGGCAUGGUCCCAGCCUCCUCGCUGGCGCCGGCUGGGCAACAUUCCGAGGGGACCGCCCCCUCGGUAAUGGCGAAUGGGACCCA [G2U U60C], with 0.0287.
Then GGCCGGCAUGGUCCCAGCCUCGUCGCUGACGCCGGCUGGGCAACAUUCCGAGGGGACCGUCCCCUCGGUAAUGGCGAAUGGGACCCA [C22G G29A], with 0.0886.
Then GGCCGGCAUGGUACCAGCCUCCUCGCUGGCGCCGGCUGGGCAACAUUCCGAGGGGACCGUCCGCUCGGUAAUGGCGAAUGGGACCCA [C13A C63G], with 0.38.
Regarding GGCCGGCAUGGUCCCAGCCUCCCCGCUGGCGCCGGCUGGGCAACAUUCCGAGGGGUCCGUCCCCUCGGUAAUGGCGAAUGGGACCCA [U23C A56U], the self-cleavage worked out at 0.987.
With GGCCGGCAUGGUCCCAGCCUCCUCGCUGGCGCCGGCUGGGCAACAUUCCGAGAGGAGCGUCCCCUCGGUAAUGGCGAAUGGGACCCA [G53A C57G] the figure was 0.992.
Take GGCCGGCAUGGUCCCAGCCUCCUCGCUGGCGCCGGCUGGGCUACUUUCCGAGGGGACCGUCCCCUCGGUAAUGGCGAAUGGGACCCA [A42U A45U]: the self-cleavage was determined as 0.554.
Consider GGCGGGCAUGGUCCCAGCCUCCUCGCUGGCGCCGGCUGGGCAACAUUCCGAGGGGACCGUCCCCUCGCUAAUGGCGAAUGGGACCCA [C4G G68C], for which the self-cleavage came to 0.475.
As for GGCCGGCAUGGUCCCAGCCUCCUCGCUGGCGCCGGCUGGGCAACAUUCCGAGGGGACCGUCCCCUCGGUAAUGGCGAUUGGGACUCA [A78U C85U], the self-cleavage amounted to 0.18.
With AGCCGGCAUGGUCCCAGCCUCCUCGCUGGCGCCGGCUGGGCAACAUUCCGAGGGGACCGUCCCCUCGGUAAUGGCGAAUGGGACCUA [G1A C86U] the figure was 0.19; with GGCCGGCGUGGUCCCAGCCUCCUCGCUGGCGCCGGCUGGGCAACAUUCCGAGGGGACCGUCCCCUCCGUAAUGGCGAAUGGGACCCA [A8G G67C], 0.665; with GGCCGGCAUGGUCCCAGCCUCCUCGCUGGCGCCGGCUGGGCAACAUUCCGAGGGGACCGCCCCCUCGGUAAUGGCGAAUGGGCCCCA [U60C A83C], 0.443.
On to GGCCGGCAUGGUCCCAGCCUCCUCGCUGGCGCCGGCUGGGCAACAUUCCGAGGGGACCGUCCCCUCGGUAAUGGCUAAUGGUACCCA [G76U G82U], for which the self-cleavage came out at 0.483.
